Here are results for 6 molecules from patent CN108635579A (UNIV JINAN, dated 2018).

Residue numbers refer to the chain shown, from its start.

What is called Kd is the equilibrium constant for the complex coming apart.

Assay [1] has as its target T1, 重组人碱性成纤维细胞生长因子(bFGF) (human, UniProt P09038 143-288, limits assumed).
T1 construct: Bought protein; also called 重组人bFGF; bFGF抗原
In words: cell-based or functional assay.

In assay [2] the target is T1, 重组人碱性成纤维细胞生长因子(bFGF). In words: SPR, bFGF immobilised on the chip, nanobody 3.125-200 nM in flow.

T1 sequence (P09038 143-288 limits assumed): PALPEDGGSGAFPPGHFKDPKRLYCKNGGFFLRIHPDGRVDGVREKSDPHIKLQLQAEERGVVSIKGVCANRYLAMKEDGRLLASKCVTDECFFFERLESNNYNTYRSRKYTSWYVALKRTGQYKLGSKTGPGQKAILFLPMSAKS

In assay [1], 阳性对照FGFR (receptor) showed a 最高增值抑制率, A375细胞 (CCK-8) of 25.3%; a 最高增值抑制率, B16-F10细胞 (CCK-8) of 22.1%; a 最高增值抑制率, B16细胞 (CCK-8) of 27.1%.

B1: 抗bFGF纳米抗体 Nb5 (VHH)
VHH: LQESGGGLVQAGGSLRLSCAASGRTFSSGAMGWFRQAPGKEPEFVATITWDGGTTYYADSVKGRYTISRDNAKNTVYLQMNDLKPEDTAVYSCAARSYSEAYYLIGSSDYNYWGQGTQVTVSS
notes: Alpaca nanobody; Nickel-purified, anti-Flag detected; also called Nb bFGF
In the case of B1, the Kd in assay [2] was determined as 12.4 nM.

B2: 抗bFGF纳米抗体 Nb6 (VHH)
VHH: LQESGGDLVQPGGSLRLSCEVSGSNFSINDMGWYRQAPGKRREVVAGISSVGRTMYGDPVKGRFTISRDNAKNMVYLQMNRLKPEDTAVYYCHLYGDYRGTGFWGKGTQVTVSS
notes: as for B1
As to B2, the Kd in assay [2] came out at 10.3 nM.

B3: 抗bFGF纳米抗体 Nb2 (VHH)
VHH: B2 VHH with T54A, G57A, H93Y
notes: as for B1
In the case of B3, the Kd in assay [2] came out at 318 nM.

B4: 抗bFGF纳米抗体 Nb1 (VHH)
VHH: B2 VHH with I28N, R41Q, P84A, E85K
notes: Expressed from pET22b in E. coli, purified on a nickel column and detected with an anti-Flag antibody; also called Nb bFGF
Molecule B4 registered a Kd in assay [2] of 11.3 nM.

B5: 抗bFGF纳米抗体 Nb3 (VHH)
VHH: B2 VHH with G57A
notes: as for B1
Turning to B5, the affinity in assay [2], expressed as Kd, was 5.37 nM.
